B1: HDV Ribozyme (parent)
chain: GGCCGGCAUGGUCCCAGCCUCCUCGCUGGCGCCGGCUGGGCAACAUUCCGAGGGGACCGUCCCCUCGGUAAUGGCGAAUGGGACCCA

Variants of: B1
Test: self-cleavage, relative activity (ratio to wild type); higher = more cleavage; co-transcriptional
Work on GGCCGGCAUGGUCCCAGCCUCCUCGCUGGCGCCGUCUGGGCAACAUUCCGAGGGGACCGUCCCCUCGGUAAUGGCGAACGGGACCCA [G35U U79C] yielded a self-cleavage of 0.0992.
Work on GGCCGGCAUGGUCCCAGCCUCCUCGCUGGCGCCGUCUGGGCAACAUUCCGAGGGGACCGUCCCCUCGGUAAUGGCGAAGGGGACCCA [G35U U79G] yielded a self-cleavage of 0.0426.
Work on GGCCGGCAUGGUCCCAGCCUCCUCGCUGGCGCCGGAUGGGCAACAUUCCGAGGGGACCGUCCCCUCGGUAAUGGCGAUUGGGACCCA [C36A A78U] yielded a self-cleavage of 0.
Work on GGCCGGCAUGGUCCCAGCCUCCUCGCUGGCGCCGGAUGGGCAACAUUCCGAGGGGACCGUCCCCUCGGUAAUGGCGACUGGGACCCA [C36A A78C] yielded a self-cleavage of 0.155.
Variant GGCCGGCAUGGUCCCAGCCUCCUCGCUGGCGCCGGAUGGGCAACAUUCCGAGGGGACCGUCCCCUCGGUAAUGGCGAGUGGGACCCA [C36A A78G] has a self-cleavage of 0.0652.
In the case of GGCCGGCAUGGUCCCAGCCUCCUCGCUGGCGCCGGAUGGGCAACAUUCCGAGGGGACCGUCCCCUCGGUAAUGGCGAAUGGGUCCCA [C36A A83U], the self-cleavage is reported as 0.0219.
GGCCGGCAUGGUCCCAGCCUCCUCGCUGGCGCCGGAUGGGCAACAUUCCGAGGGGACCGUCCCCUCGGUAAUGGCGAAUGGGACCCU [C36A A87U] gave a self-cleavage of 0.0587.
For GGCCGGCAUGGUCCCAGCCUCCUCGCUGGCGCCGGAUGGGCAACAUUCCGAGGGGACCGUCCCCUCGGUAAUGGCGAAUGGGACCCC [C36A A87C], the self-cleavage was 0.147.
Variant GGCCGGCAUGGUCCCAGCCUCCUCGCUGGCGCCGGAUGGGCAACAUUCAGAGGGGACCGUCCCCUCGGUAAUGGCGAAUGGGACCCA [C36A C49A] has a self-cleavage of 0.0554.
For GGCCGGCAUGGUCCCAGCCUCCUCGCUGGCGCCGGAUGGGCAACAUUCUGAGGGGACCGUCCCCUCGGUAAUGGCGAAUGGGACCCA [C36A C49U], the self-cleavage was 0.116.
Variant GGCCGGCAUGGUCCCAGCCUCCUCGCUGGCGCCGUCUGGGCAACACUCCGAGGGGACCGUCCCCUCGGUAAUGGCGAAUGGGACCCA [G35U U46C] has a self-cleavage of 0.0415.
With GGCCGGCAUGGUCCCAGCCUCCUCGCUGGCGCCGGAUGGGCAACAUUCCGAGGGGACCGUUCCCUCGGUAAUGGCGAAUGGGACCCA [C36A C61U] the self-cleavage was 0.138.
In the case of GGCCGGCAUGGUCCCAGCCUCCUCGCUGGCGCCGGAUGGGCAACAUUCCGAGGGGACCGUACCCUCGGUAAUGGCGAAUGGGACCCA [C36A C61A], the self-cleavage is reported as 0.0536.
GGCCGGCAUGGUCCCAGCCUCCUCGCUGGCGCCGUCUGGGCAACAUACCGAGGGGACCGUCCCCUCGGUAAUGGCGAAUGGGACCCA [G35U U47A] showed a self-cleavage of 0.332.
GGCCGGCAUGGUCCCAGCCUCCUCGCUGGCGCCGGAUGGGCAACAUUCCGAGGGGACCGUCCCCUCGGUAAUGGCGAAUGGGACGCA [C36A C85G] showed a self-cleavage of 0.18.
GGCCGGCAUGGUCCCAGCCUCCUCGCUGGCGCCGGAUGGGCAACAUUCCGAGGGGACCGUCCCCUCGGUAAUGGCGAAUGGGACACA [C36A C85A] gave a self-cleavage of 0.457.
Variant GGCCGGCAUGGUCCCAGCCUCCUCGCUGGCGCCGGAUGGGCAAGAUUCCGAGGGGACCGUCCCCUCGGUAAUGGCGAAUGGGACCCA [C36A C44G] has a self-cleavage of 0.125.
Variant GGCCGGCAUGGUCCCAGCCUCCUCGCUGGCGCCGGAUGGGCAACAUUCCGAGGGGACCGUCCCCUCGGUAAUGGCGAAUGGGACCCA [C36A] has a self-cleavage of 0.147.
GGCCGGCAUGGUCCCAGCCUCCUCGCUGGCGCCGGAUGGGCAACAUUCCGAGGGGACGGUCCCCUCGGUAAUGGCGAAUGGGACCCA [C36A C58G] gave a self-cleavage of 0.119.
GGCCGGCAUGGUCCCAGCCUCCUCGCUGGCGCCGGAUGGGCAACAUUCCGAGGGGACAGUCCCCUCGGUAAUGGCGAAUGGGACCCA [C36A C58A] showed a self-cleavage of 0.227.
Variant GGCCGGCAUGGUCCCAGCCUCCUCGCUGGCGCCGGAUGGGCAACAUUCCGAGGGGACUGUCCCCUCGGUAAUGGCGAAUGGGACCCA [C36A C58U] has a self-cleavage of 0.222.
Variant GGCCGGCAUGGUCCCAGCCUCCUCGCUGGCGCCGGAUGGGCAACAUUCCGAGGGGACCGUCCCAUCGGUAAUGGCGAAUGGGACCCA [C36A C64A] has a self-cleavage of 0.0405.
GGCCGGCAUGGUCCCAGCCUCCUCGCUGGCGCCGGAUGGGCAACAUUCCGAGGGGACCGUCCCGUCGGUAAUGGCGAAUGGGACCCA [C36A C64G] showed a self-cleavage of 0.0652.
Work on GGCCGGCAUGGUCCCAGCCUCCUCGCUGGCGCCGGAUAGGCAACAUUCCGAGGGGACCGUCCCCUCGGUAAUGGCGAAUGGGACCCA [C36A G38A] yielded a self-cleavage of 0.0845.
With GGCCGGCAUGGUCCCAGCCUCCUCGCUGGCGCCGGAUCGGCAACAUUCCGAGGGGACCGUCCCCUCGGUAAUGGCGAAUGGGACCCA [C36A G38C] the self-cleavage was 0.0415.
Variant GGCCGGCAUGGUCCCAGCCUCCUCGCUGGCGCCGGAUUGGCAACAUUCCGAGGGGACCGUCCCCUCGGUAAUGGCGAAUGGGACCCA [C36A G38U] has a self-cleavage of 0.189.
Variant GGCCGGCAUGGUCCCAGCCUCCUCGCUGGCGCCGGAUGGGCUACAUUCCGAGGGGACCGUCCCCUCGGUAAUGGCGAAUGGGACCCA [C36A A42U] has a self-cleavage of 0.122.
GGCCGGCAUGGUCCCAGCCUCCUCGCUGGCGCCGUCUGGGCAACAUUCCGAGGGGACCGUCCCCUCGGUAAGGGCGAAUGGGACCCA [G35U U72G] showed a self-cleavage of 0.151.
With GGCCGGCAUGGUCCCAGCCUCCUCGCUGGCGCCGGAUGGGCAACAUUCCGAGGGGGCCGUCCCCUCGGUAAUGGCGAAUGGGACCCA [C36A A56G] the self-cleavage was 0.145.
GGCCGGCAUGGUCCCAGCCUCCUCGCUGGCGCCGGAUGGGCAACAUUCCGAGGGGACCGUCCCCUCGGUCAUGGCGAAUGGGACCCA [C36A A70C] gave a self-cleavage of 0.128.
GGCCGGCAUGGUCCCAGCCUCCUCGCUGGCGCCGGAUGGGCAACAUUCCGAGGGGACCGUCCGCUCGGUAAUGGCGAAUGGGACCCA [C36A C63G] gave a self-cleavage of 0.208.
GGCCGGCAUGGUCCCAGCCUCCUCGCUGGCGCCGGAUGGGCAACAUUCCGAGGGGACCGUCCUCUCGGUAAUGGCGAAUGGGACCCA [C36A C63U] showed a self-cleavage of 0.177.

Source: the RNAGym collection of RNA variant scans (doi:10.7554/elife.80360)
